PMC4470706 (Journal of nuclear medicine : official publication, Society …, 2015)

What was measured:
PC-3 tumor–bearing mice = conditions: mouse, in vivo
in vivo = assay: in vivo; set-up: species or system mice; conditions: male, athymic nude (outbred) CrTac:NCr-Foxn1nu, mouse, iv, 11.1 MBq, total radioactivity, Activity concentration

## CC(C)C[C@H](NC(=O)C[C@H](O)[C@H](CC(C)C)NC(=O)[C@H](Cc1c[nH]cn1)NC(=O)CNC(=O)[C@@H](NC(=O)[C@H](C)NC(=O)[C@H](Cc1c[nH]c2ccccc12)NC(=O)[C@H](CCC(N)=O)NC(=O)[C@@H](Cc1ccccc1)NC(=O)CCOCCOCCOCCOCCNC(=O)CN1CCN(CC(=O)O)CCN(CC(=O)O)CCN(CC(=O)O)CC1)C(C)C)C(N)=O [^90Y-DOTA-AR, metal not drawn]
PC-3 tumor–bearing mice
  Radiation dose to kidney: 0.06 ± 0.01 Gy/MBq
  Radiation dose to kidney, range: 0.05–0.08 Gy/MBq
In vivo; PC-3 tumor
  tissue uptake at 1 h: 3.62 ± 0.95 %ID/g
  tissue uptake at 4 h: 2.92 ± 0.57 %ID/g
  tissue uptake at 24 h: 0.45 ± 0.04 %ID/g
  tissue uptake at 48 h: 0.1 ± 0.05 %ID/g
In vivo; kidney
  tissue uptake at 1 h: 1.76 ± 0.61 %ID/g
  tissue uptake at 4 h: 0.78 ± 0.14 %ID/g
  tissue uptake at 24 h: 0.17 ± 0.02 %ID/g
  tissue uptake at 48 h: 0.07 ± 0.01 %ID/g
In vivo; liver
  tissue uptake at 1 h: 0.21 ± 0.05 %ID/g
  tissue uptake at 4 h: 0.12 ± 0.06 %ID/g
  tissue uptake at 24 h: 0.04 ± 0.01 %ID/g
  tissue uptake at 48 h: 0.02 %ID/g
